Our source for the self-cleavage values is the RNAGym collection of RNA variant scans (doi:10.7554/elife.80360).

To fix the notation:
B1: Twister Ribozyme (parent)
chain: AACACUGCCAAUGCCGGUCCCAAGCCCGGAUAAAAGUGGAGGGGGCGG

In this data set the parent is B1. Nature of the data set: self-cleavage, relative activity (ratio to wild type); higher = more cleavage; co-transcriptional.
Regarding U31A G47U, the self-cleavage is 0.621.

Regarding U31A G47A, the self-cleavage amounted to 0.628.

Consider U31A G47C, for which the self-cleavage was 0.391.

Take U31G G44U: the self-cleavage came to 0.882.

With A34G C46A, the self-cleavage was 0.736.

In the case of A34G C46U, the self-cleavage came to 0.834.

Turning to A33U C46G, the self-cleavage is 0.921.

On to A33U C46A, for which the self-cleavage is 0.851.

Regarding A33U C46U, the self-cleavage amounted to 0.917.

As for A34C G39U, the self-cleavage turned out to be 0.11.

A34U G39A: the self-cleavage worked out at 0.199.

Regarding A34U G39U, the self-cleavage worked out at 0.139.

Turning to U31G G42U, the self-cleavage is 0.447.

In the case of A32G U37G, the self-cleavage was 0.716.

Regarding A32C G36U, the self-cleavage was found to be 0.184.

As to A34U G45U, the self-cleavage stood at 0.59.

In the case of A32C A40G, the self-cleavage came to 0.134.

As for A32C A40U, the self-cleavage came out at 0.123.

With U31A G48A, the self-cleavage was 0.717.

With U31A G48C, the self-cleavage is 1.19.

With U31A G48U, the self-cleavage worked out at 0.881.

As to A32U C46G, the self-cleavage stood at 0.973.

As to A32U C46A, the self-cleavage was 0.873.

For the variant A32C A35G, the self-cleavage was 0.8.

On to A34C G41U, for which the self-cleavage came out at 0.112.

As for A34C G41C, the self-cleavage is 0.111.

As to U31A G43U, the self-cleavage stood at 0.233.

For the variant A35C G41A, the self-cleavage stood at 0.611.

With A32C G38C, the self-cleavage came to 0.89.

As for A32C G38A, the self-cleavage is 1.03.

For the variant A33G G47C, the self-cleavage turned out to be 0.394.

Turning to A32G G44U, the self-cleavage amounted to 1.06.

As to A32G G45C, the self-cleavage is 0.559.

On to A32G G38U, for which the self-cleavage was 0.846.

As to A35C G42U, the self-cleavage came out at 0.415.

With A35C G42A, the self-cleavage was found to be 0.32.

For A34U G38U, the self-cleavage is 0.506.

As for U31G C46A, the self-cleavage worked out at 1.1.

In the case of A35C G36A, the self-cleavage stood at 0.491.

Take A35C G36U: the self-cleavage came out at 0.477.

In the case of A35C U37G, the self-cleavage amounted to 0.703.

For the variant A32U A35U, the self-cleavage came to 1.13.

On to A35C G38A, for which the self-cleavage is 0.9.

For the variant A35C G38U, the self-cleavage stood at 0.881.

As for A34G G45C, the self-cleavage came out at 0.274.

As to U31C G43U, the self-cleavage came out at 0.537.

For the variant A33U A35G, the self-cleavage was 0.8.

Take A33U A35C: the self-cleavage came to 0.961.

Consider A33U A35U, for which the self-cleavage is 0.926.

With A32U G47A, the self-cleavage worked out at 0.883.

Turning to A32U G47U, the self-cleavage turned out to be 0.83.

For A32U G47C, the self-cleavage stood at 0.583.

As for U31C A32G, the self-cleavage was 0.997.

Consider U31C A32C, for which the self-cleavage was 0.965.

As for A33G G41U, the self-cleavage was 0.381.

As for A33G G41A, the self-cleavage is 0.453.

For A32U G45U, the self-cleavage stood at 0.819.

As for A32G G47U, the self-cleavage is 0.893.

A32G G47A: the self-cleavage came to 0.924.

Take A33U G43U: the self-cleavage came to 0.421.

On to A34G G47A, for which the self-cleavage turned out to be 0.477.

Take A32G A35U: the self-cleavage worked out at 0.986.

Consider A32G A35G, for which the self-cleavage worked out at 0.718.

As to A34U A35U, the self-cleavage is 0.841.

Turning to A34U A35C, the self-cleavage was found to be 0.892.

For the variant A32U A40G, the self-cleavage turned out to be 0.108.

Take A32U A40C: the self-cleavage was determined as 0.204.

For the variant A33C G48C, the self-cleavage was 1.1.

Regarding A33C G48A, the self-cleavage turned out to be 0.867.

With A32U A34U, the self-cleavage came out at 0.89.

As for A32U A34G, the self-cleavage was found to be 0.869.

On to A34C G45U, for which the self-cleavage came out at 0.167.

Regarding A34C G45C, the self-cleavage worked out at 0.0937.

Consider A34C G45A, for which the self-cleavage was 0.144.

Turning to A33C G41U, the self-cleavage was found to be 0.265.

For U31G G38U, the self-cleavage came out at 0.778.

Consider U31G G38A, for which the self-cleavage came to 0.937.

Take A33U G38U: the self-cleavage came out at 0.815.

As to A32U G43U, the self-cleavage was 0.384.

With A32U G43A, the self-cleavage turned out to be 0.239.

A34G G41U: the self-cleavage is 0.131.

A34G G41A: the self-cleavage amounted to 0.141.

Consider U31C G44U, for which the self-cleavage was 1.01.

Take A32C A34G: the self-cleavage was found to be 0.761.

For A32C A34U, the self-cleavage stood at 0.786.

Turning to U31G G39C, the self-cleavage worked out at 0.144.

In the case of U31G G39A, the self-cleavage worked out at 0.623.

For the variant A34G U37A, the self-cleavage was 0.444.

Turning to A33C A34U, the self-cleavage was 0.969.

Turning to A32G G48U, the self-cleavage was found to be 1.1.

On to A32G G48C, for which the self-cleavage worked out at 0.976.

As for A32G G48A, the self-cleavage was 0.925.

As for U31C G36A, the self-cleavage stood at 0.725.

Turning to A33G U37G, the self-cleavage came out at 0.601.

For A32G G36C, the self-cleavage worked out at 0.403.

In the case of A32G G36U, the self-cleavage worked out at 0.244.

Consider U31G A34C, for which the self-cleavage was 0.477.

As to A35C A40C, the self-cleavage stood at 0.154.

With A33G C46G, the self-cleavage was 0.855.

In the case of A33C G47U, the self-cleavage is 0.865.

For the variant A33C G47A, the self-cleavage was 0.782.

For the variant U31G A35G, the self-cleavage came out at 0.682.

For U31G A35C, the self-cleavage came out at 1.06.

A35G G41A: the self-cleavage was 0.246.

Regarding A34C G47U, the self-cleavage turned out to be 0.107.

On to A34C G47A, for which the self-cleavage came to 0.122.

With U31C G42A, the self-cleavage stood at 0.363.

Consider U31C G42C, for which the self-cleavage was 0.413.

With A32U G36A, the self-cleavage turned out to be 0.701.

As to A33U G36A, the self-cleavage turned out to be 0.282.

As to A33U G36U, the self-cleavage worked out at 0.132.

Regarding A34G A40G, the self-cleavage was found to be 0.111.

Regarding A34G A40U, the self-cleavage was determined as 0.122.

On to A34C G38A, for which the self-cleavage amounted to 0.232.

As to A34C G38C, the self-cleavage is 0.157.

With A32C G45C, the self-cleavage turned out to be 0.546.

With A32C G45U, the self-cleavage is 0.758.

Regarding A32C G45A, the self-cleavage was found to be 0.95.

Turning to A34U G43A, the self-cleavage was determined as 0.209.

As to A35G G36A, the self-cleavage is 0.718.

Turning to A35G G36C, the self-cleavage is 0.491.

Take A35G G36U: the self-cleavage amounted to 0.765.

Consider A32U G48U, for which the self-cleavage was determined as 0.977.

A32U G48C: the self-cleavage stood at 1.2.

Turning to A33G G36A, the self-cleavage stood at 0.509.

As for A33G G36U, the self-cleavage is 0.256.

For the variant U31C G38A, the self-cleavage is 0.81.

U31C G38U: the self-cleavage came to 0.904.

For U31A G45C, the self-cleavage amounted to 0.347.

Regarding A34U G44A, the self-cleavage was 0.893.

Consider A34U G44C, for which the self-cleavage came out at 0.766.

Regarding A33C G42C, the self-cleavage is 0.19.

As to A33C G42A, the self-cleavage worked out at 0.177.

For A33C G42U, the self-cleavage came to 0.188.

Consider A35U A40C, for which the self-cleavage amounted to 0.195.

Consider A34U C46U, for which the self-cleavage worked out at 0.84.

Take A34U C46G: the self-cleavage came to 0.839.

In the case of A35C G45A, the self-cleavage stood at 0.807.

On to A35C G45U, for which the self-cleavage is 0.855.

In the case of A35G G43C, the self-cleavage was 0.16.

For the variant A35G G43U, the self-cleavage came out at 0.13.

In the case of A34G G38U, the self-cleavage turned out to be 0.677.

With A33G G44A, the self-cleavage was found to be 0.79.

On to A35U G38C, for which the self-cleavage was found to be 0.973.

A33G G38A: the self-cleavage is 0.709.

A33G G38C: the self-cleavage is 0.878.

Turning to A35G G47C, the self-cleavage was found to be 0.562.

In the case of A35G G47U, the self-cleavage turned out to be 0.81.

With A33C U37G, the self-cleavage worked out at 0.626.

Take A33C U37C: the self-cleavage was found to be 0.354.

With U31G A40G, the self-cleavage is 0.0918.

On to U31G A40C, for which the self-cleavage is 0.224.

Consider A34C U37A, for which the self-cleavage amounted to 0.169.

Turning to A34C U37G, the self-cleavage worked out at 0.249.

For the variant A34C U37C, the self-cleavage worked out at 0.116.

On to A35C G43U, for which the self-cleavage was 0.456.

A32C U37G: the self-cleavage was 0.625.

Turning to U31C A33G, the self-cleavage turned out to be 0.891.

For the variant U31C A33U, the self-cleavage was found to be 1.08.

For A33C G38A, the self-cleavage amounted to 0.867.

As for A33C G38U, the self-cleavage was found to be 0.72.

Take A35G G44U: the self-cleavage worked out at 0.831.

With U31G G41C, the self-cleavage stood at 0.278.

Regarding U31G G41U, the self-cleavage amounted to 0.763.

As for A33U G45C, the self-cleavage came to 0.554.

With U31G G47U, the self-cleavage was 0.92.

Consider A34U G47A, for which the self-cleavage was 0.601.
